In this experiment the target is GST fused to Las17 fragment P8-12 (GST-P8-12) (S. cerevisiae) (UniProt Q12446). In words: pull-down.
Sequence of UniProt Q12446 (Q12446 300-404): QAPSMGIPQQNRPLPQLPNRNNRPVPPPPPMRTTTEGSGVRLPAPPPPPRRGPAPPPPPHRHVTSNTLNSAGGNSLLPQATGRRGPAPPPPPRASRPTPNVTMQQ

For “hexahistidine-tagged Sla1 fragment spanning the SH3 domains 1 and 2 (His-Sla1-SH3-1-2) (domain or fragment)”, the Kd worked out at 56 nM.

The values are drawn from PMC3484103.
